Measurements published in the supplement of paper PMC3353916.
± gives the standard deviation of the averaged measurements.

Tested on: Sindbis virus TE/5'2J-GFP
Assay: percent infected (GFP+ in RFP+ ISG-expressing cells); higher = more infection (less antiviral activity)
Experimental: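 Confirmatory testing of 87 ISGs. Triplicate wells of BHK/HA-Zeo (control) or BHK/NZAP-Zeo (ZAP) cells were transduced with lentiviruses co-expressing a human ISG plus TagRFP, then infected 48 h later with SINV TE/5'2J-GFP (moi 5). The % GFP+ cells among RFP+ cells was measured by flow cytometry at 8 h post infection. Fluc lentivirus served as control. Three independent experiments.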

[1] = experiment: confirmatory screen 1, BHK/HA-Zeo (control)
[2] = experiment: confirmatory screen 1, BHK/NZAP-Zeo (ZAP)
[3] = experiment: confirmatory screen 2, BHK/HA-Zeo (control)
[4] = experiment: confirmatory screen 2, BHK/NZAP-Zeo (ZAP)
[5] = experiment: confirmatory screen 3, BHK/HA-Zeo (control)
[6] = experiment: confirmatory screen 3, BHK/NZAP-Zeo (ZAP)
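Further: Interferon-defective BHK-21 derivatives, ZAP line overexpressing the rat ZAP N-terminal zinc finger domain fused to Zeocin resistance, GFP scored within live singlet TagRFP+ cells.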

Sequence | percent infected [1] | percent infected [2] | percent infected [3] | percent infected [4] | percent infected [5] | percent infected [6]
MALLLALSLLVLWTSPAPTLSGTNDAEDCCLSVTQKPIPGYIVRNFHYLLIKDGCRVPAVVFTTLRGRQLCAPPDQPWVERIIQRLQRTSAKMKRRSS [CCL19] | 95.7 ± 1.2% | 81.5 ± 1.8% | 95.5 ± 0.73% | 95.12 ± 0.1% | 92.83 ± 0.53% | 92.52 ± 0.47%
MTLRCLEPSGNGGEGTRSQWGTAGSAEEPSPQAARLAKALRELGQTGWYWGSMTVNEAKEKLKEAPEGTFLIRDSSHSDYLLTISVKTSAGPTNLRIEYQDGKFRLDSIICVKSKLKQFDSVVHLIDYYVQMCKDKRTGPEAPRNGTVHLYLTKPLYTSAPSLQHLCRLTINKCTGAIWGLPLPTRLKDYLEEYKFQV [SOCS2] | 95.84 ± 0.81% | 76.8 ± 4.2% | 95.47 ± 0.42% | 94.44 ± 0.35% | 92.29 ± 0.39% | 92.23 ± 0.73%
MSSENCFVAENSSLHPESGQENDATSPHFSTRHEGSFQVPVLCAVMNVVFITILIIALIALSVGQYNCPGQYTFSMPSDSHVSSCSEDWVGYQRKCYFISTVKRSWTSAQNACSEHGATLAVIDSEKDMNFLKRYAGREEHWVGLKKEPGHPWKWSNGKEFNNWFNVTGSDKCVFLKNTEVSSMECEKNLYWICNKPYK [CD69] | 95.94 ± 0.47% | 68.2 ± 4.8% | 94.01 ± 0.54% | 94.27 ± 0.39% | 91.7 ± 1.1% | 93.02 ± 0.27%
MSLRGSLSRLLQTRVHSILKKSVHSVAVIGAPFSQGQKRKGVEHGPAAIREAGLMKRLSSLGCHLKDFGDLSFTPVPKDDLYNNLIVNPRSVGLANQELAEVVSRAVSDGYSCVTLGGDHSLAIGTISGHARHCPDLCVVWVDAHADINTPLTTSSGNLHGQPVSFLLRELQDKVPQLPGFSWIKPCISSASIVYIGLRDVDPPEHFILKNYDIQYFSMRDIDRLGIQKVMERTFDLLIGKRQRPIHLSFDIDAFDPTLAPATGTPVVGGLTYREGMYIAEEIHNTGLLSALDLVEVNPQLATSEEEAKTTANLAVDVIASSFGQTREGGHIVYDQLPTPSSPDESENQARVRI [ARG2] | 93.279 ± 0.073% | 64 ± 4.9% | 95.82 ± 0.36% | 95.52 ± 0.29% | 92.68 ± 0.49% | 93.532 ± 0.087%
MSSAIERKSLDPSEEPVDEVLQIPPSLLTCGGCQQNIGDRYFLKAIDQYWHEDCLSCDLCGCRLGEVGRRLYYKLGRKLCRRDYLRLFGQDGLCASCDKRIRAYEMTMRVKDKVYHLECFKCAACQKHFCVGDRYLLINSDIVCEQDIYEWTKINGMI [LMO2] | 95.7 ± 1.2% | 86.1 ± 1.6% | 95.94 ± 0.44% | 94.18 ± 0.17% | 92.69 ± 0.33% | 92.61 ± 0.82%
MATERSRSAMDSPVPASMFAPEPSSPGAARAAAAAARLHGGFDSDCSEDGEALNGEPELDLTSKLVLVSPTSEQYDSLLRQMWERMDEGCGETIYVIGQGSDGTEYGLSEADMEASYATVKSMAEQIEADVILLRERQEAGGRVRDYLVRKRVGDNDFLEVRVAVVGNVDAGKSTLLGVLTHGELDNGRGFARQKLFRHKHEIESGRTSSVGNDILGFDSEGNVVNKPDSHGGSLEWTKICEKSTKVITFIDLAGHEKYLKTTVFGMTGHLPDFCMLMVGSNAGIVGMTKEHLGLALALNVPVFVVVTKIDMCPANILQETLKLLQRLLKSPGCRKIPVLVQSKDDVIVTASNFSSERMCPIFQISNVTGENLDLLKMFLNLLSPRTSYREEEPAEFQIDDTYSVPGVGTVVSGTTLRGLIKLNDTLLLGPDPLGNFLSIAVKSIHRKRMPVKEVRGGQTASFALKKIKRSSIRKGMVMVSPRLNPQASWEFEAEILVLHHPTTISPRYQAMVHCGSIRQTATILSMDKDCLRTGDKATVHFRFIKTPEYLHIDQRLVFREGRTKAVGTITKLLQTTNNSPMNSKPQQIKMQSTKKGPLTKRDEGGPSGGPAVGAPPPGDEASSVGAGQPAASSNLQPQPKPSSGGRRRGGQRHKVKSQGACVTPASGC [GTPBP1] | 93.61 ± 0.15% | 64.4 ± 7.3% | 97.42 ± 0.24% | 96.28 ± 0.23% | 88.74 ± 0.67% | 90.6 ± 0.93%
MKKSGVLFLLGIILLVLIGVQGTPVVRKGRCSCISTNQGTIHLQSLKDLKQFAPSPSCEKIEIIATLKNGVQTCLNPDSADVKELIKKWEKQVSQKKKQKNGKKHQKKKVLKVRKSQRSRQKKTT [CXCL9] | 61.9 ± 6.1% | 44.7 ± 2.9% | 88.7 ± 2.5% | 91.55 ± 0.18% | 83.1 ± 1.5% | 82 ± 1.1%
